± gives the uncertainty stated by the source.
B1: POU domain, class 5, transcription factor 1, residues 134 to 212; numbered along this chain, Q01860 (parent)
chain: EESQDIKALQKELEQFAKLLKQKRITLGYTQADVGLTLGVLFGKVFSQTTICRFEALQLSFKNMCKLRPLLQKWVEEAD

Variants of: B1
Experiment: abundance fitness (aPCA) (normalised: wild type 0, dead -1); higher = more abundant; growth selection in yeast, the domain comes from the species named
Details: Homo sapiens

Row | Variant | abundance fitness
1 | K66Q | -0.051 ± 0.19
2 | K66M | 0.113 ± 0.12
3 | K66A | -0.011 ± 0.097
4 | K66T | -0.187 ± 0.16
5 | K66G | -0.185 ± 0.091
6 | K66S | 0.003 ± 0.12
7 | L27M | -0.188 ± 0.19
8 | L27D | -0.185 ± 0.25
9 | L27H | -0.387 ± 0.41
10 | L27I | -0.051 ± 0.49
11 | L27A | -0.648 ± 0.21
12 | L27C | 0.039 ± 0.19
13 | L27S | -0.724 ± 0.25
14 | I51K | -0.067 ± 0.44
15 | I51A | -0.916 ± 0.42
16 | I51V | -0.48 ± 0.27
17 | R53K | 0.029 ± 0.41
18 | R53G | -0.421 ± 0.16
19 | F16G | -0.522 ± 0.23
20 | F16A | -0.191 ± 0.32
21 | F16C | -0.23 ± 0.21
22 | F16L | -0.133 ± 0.16
23 | R24S | -0.361 ± 0.18
24 | T30M | -0.526 ± 0.25

Row | Variant | abundance fitness
25 | T30L | -0.853 ± 0.27
26 | T30A | -0.667 ± 0.18
27 | T30H | -0.437 ± 0.44
28 | E14F | -0.056 ± 0.14
29 | E14G | -0.033 ± 0.13
30 | E14P | -0.613 ± 0.29
31 | E14T | -0.352 ± 0.16
32 | E14L | -0.168 ± 0.11
33 | E14Y | 0.076 ± 0.2
34 | E14W | -0.367 ± 0.15
35 | E14A | 0.143 ± 0.085
36 | E14H | -0.037 ± 0.16
37 | F61M | 0.04 ± 0.11
38 | F61C | -0.441 ± 0.31
39 | F61N | -0.275 ± 0.29
40 | F61L | 0.036 ± 0.12
41 | F61P | 0.202 ± 0.13
42 | F61E | -0.8 ± 0.21
43 | E2G | 0.211 ± 0.26
44 | Q58D | -0.03 ± 0.19
45 | Q58G | -0.573 ± 0.25
46 | Q58A | -0.5 ± 0.21
47 | Q58S | -0.307 ± 0.17
48 | Q58T | -0.097 ± 0.2

Row | Variant | abundance fitness
49 | L38C | -0.029 ± 0.25
50 | L38E | -0.701 ± 0.24
51 | L38R | -0.511 ± 0.13
52 | L67E | -0.289 ± 0.17
53 | L67R | -0.575 ± 0.12
54 | L67T | -0.494 ± 0.29
55 | L67N | 0.553 ± 0.28
56 | Y29P | -0.407 ± 0.24
57 | Y29H | 0.148 ± 0.21
58 | Y29Q | 0.068 ± 0.19
59 | Y29S | -0.717 ± 0.21
60 | Y29L | -0.055 ± 0.094
61 | Y29I | -0.771 ± 0.47
62 | W74V | -0.264 ± 0.3
63 | W74F | -0.131 ± 0.47
64 | W74D | -0.447 ± 0.28
65 | L57R | -0.234 ± 0.098
66 | L57Q | 0.106 ± 0.2
67 | L57M | 0.152 ± 0.16
68 | L57H | 0.298 ± 0.2
69 | L57S | -0.306 ± 0.16
70 | L57K | -0.45 ± 0.28
71 | L57A | -0.58 ± 0.22
72 | K73Y | -0.595 ± 0.37

Row | Variant | abundance fitness
73 | K73L | -0.289 ± 0.11
74 | K73E | -0.595 ± 0.17
75 | K73Q | -0.1 ± 0.14
76 | K73P | -0.506 ± 0.21
77 | K73W | -0.474 ± 0.14
78 | K73T | -0.083 ± 0.12
79 | S60W | -0.381 ± 0.31
80 | S60L | -0.265 ± 0.21
81 | Q4G | -0.064 ± 0.07
82 | Q4L | -0.067 ± 0.09
83 | Q4K | -0.011 ± 0.16
84 | Q4V | -0.061 ± 0.088
85 | Q4N | -0.253 ± 0.32
86 | L9Y | -0.164 ± 0.24
87 | L9A | -0.066 ± 0.088
88 | L9R | -0.023 ± 0.067
89 | L9D | -0.385 ± 0.2
90 | L9P | 0.195 ± 0.12
91 | L9I | -0.331 ± 0.4
92 | Q22H | 0.027 ± 0.29
93 | Q22A | -0.151 ± 0.3
94 | P69N | -0.008 ± 0.27
95 | P69F | -0.473 ± 0.3
96 | P69W | -0.999 ± 0.29

Row | Variant | abundance fitness
97 | P69R | -0.613 ± 0.13
98 | P69H | -0.208 ± 0.28
99 | P69A | -0.252 ± 0.12
100 | P69M | -0.662 ± 0.21
101 | P69L | -0.351 ± 0.13
102 | V75Q | -0.206 ± 0.34
103 | V75R | -0.661 ± 0.25
104 | V75E | -0.353 ± 0.48
105 | V75C | -0.343 ± 0.26
106 | V75H | -0.025 ± 0.36
107 | V75A | -0.815 ± 0.32
108 | F46A | -0.147 ± 0.13
109 | A78V | 0.216 ± 0.092
110 | A78R | -0.289 ± 0.13
111 | A78T | -0.014 ± 0.26
112 | A78Q | 0.053 ± 0.27
113 | K23T | -0.384 ± 0.27
114 | G39T | -0.613 ± 0.28
115 | L71E | -0.344 ± 0.16
116 | L71F | -0.562 ± 0.29
117 | L71S | -0.911 ± 0.26
118 | K11M | 0.076 ± 0.14
119 | K11N | 0.048 ± 0.28
120 | K11V | -0.21 ± 0.12

Row | Variant | abundance fitness
121 | K11C | -0.369 ± 0.27
122 | K11W | -0.198 ± 0.13
123 | K11T | -0.388 ± 0.3
124 | K11Y | 0.067 ± 0.21
125 | F42D | -0.481 ± 0.31
126 | F42M | -0.607 ± 0.15
127 | F42N | -0.191 ± 0.2
128 | F42E | -0.493 ± 0.096
129 | F42L | -0.469 ± 0.081
130 | T50E | 0.231 ± 0.11
131 | T50G | -0.601 ± 0.13
132 | Q15W | -0.442 ± 0.13
133 | Q15T | -0.329 ± 0.23
134 | Q15A | 0.127 ± 0.12
135 | Q15L | -0.259 ± 0.1
136 | Q15M | -0.184 ± 0.17
137 | Q15K | -0.631 ± 0.43
138 | E1V | -0.45 ± 0.16
139 | E1R | 0.064 ± 0.14
140 | E1K | -0.034 ± 0.24
141 | E1L | -0.135 ± 0.23
142 | E1Q | 0.066 ± 0.31
143 | A8S | 0.171 ± 0.21
144 | A8V | 0.083 ± 0.25

Row | Variant | abundance fitness
145 | I25L | 0.249 ± 0.16
146 | I25K | -0.131 ± 0.47
147 | I25R | -0.078 ± 0.24
148 | K44Y | -0.489 ± 0.44
149 | E77M | 0.037 ± 0.17
150 | E77R | -0.108 ± 0.078
151 | E77G | -0.124 ± 0.079
152 | E77N | 0.718 ± 0.33
153 | E77W | 0.226 ± 0.076
154 | E77D | -0.107 ± 0.16
155 | E77A | -0.124 ± 0.099
156 | E77Y | 0.096 ± 0.18
157 | E77Q | 0.184 ± 0.12
158 | S47K | -0.597 ± 0.48
159 | G28W | -0.813 ± 0.33
160 | G28M | -0.465 ± 0.24
161 | G28N | -0.34 ± 0.42
162 | Q31C | 0.266 ± 0.18
163 | Q31H | -0.108 ± 0.37
164 | Q31E | 0.276 ± 0.1
165 | Q31K | -0.557 ± 0.34
166 | A32H | -0.487 ± 0.41
167 | A32E | -0.024 ± 0.15

Source: the Human Domainome abundance scans (Beltran et al. 2025)
